# Like-named read-outs stand apart in the source and are kept apart here.
# What was measured:
# [1] = tested on: SJSA-1 cells; assay: Crystal Violet cytotoxicity assay (Examples 1 and 2), SJSA-1
# Procedure: (§1) Typically, test reagents were serial diluted 1:4 in 2 mL deep-well dilution plates, starting at 1 μM (10 dilutions total). 100 μL of diluted samples were added to the cell plates (starting concentration of test samples at 500 nM). […] Medium was discarded, plates were washed once with 200 μL DPBS, stained with 50 μL of 0.2% Crystal Violet solution at room temperature for 15 min, and then washed extensively with tap water. Plates were air-dried, and Crystal Violet was dissolved with 200 μL of 1% SDS solution. Plates were read at 570 nm. Data was analyzed using GraphPad Prism 6. Assays were performed using a seeding density of 1,000 cells per well and compound exposure was for a total of 5 days. When shorter-term exposure was desired, medium containing cytotoxic agents was removed after 4 hours and replaced with fresh growth medium prior to 5-day incubation. For OVCAR3, CaOV3, and NCI-H2110, cells were seeded at 3,000 cells/well and incubated for 5 days with ADC.
# (§2) In vitro potency of prepared ADCs was assessed using a Crystal Violet assay as detailed in section 1.4.1.
# (§3) SJSA-1 cells are a human osteosarcoma tumor cell line that are negative for folate receptor alpha.
# (§4) Typically, test reagents were serially-diluted 1:4 in 2 mL deep-well dilution plates, starting at 1 μM (10 dilutions total). 100 μL of diluted samples were added to the cell plates (starting concentration of test samples at 100 nM). […] Medium was discarded, plates were washed once with 200 μL DPBS, stained with 50 μL of 0.2% Crystal Violet solution at room temperature for 15 min, and then washed extensively with tap water. Plates were air-dried, and Crystal Violet was dissolved with 200 μL of 1% SDS solution. Plates were read at 570 nm. Data was analyzed using GraphPad Prism 6.
# [2] = tested on: IGROV1 cells; assay: Serum stability assay, cytotoxicity readout on IGROV1
# Procedure: (§5) Following incubation, samples were frozen and stored at −20° C. until evaluation in cytotoxicity and binding assays. For cytotoxicity analyses, samples were evaluated on IGROV1 and SJSA-1 cells, as detailed in section 1.4.1. For binding assessment, samples were evaluated using a solution-based MSD ECL assay.
# (§6) ER-001161319 is maytansine-based ADC comprising the same cleavable linker as VCP-eribulin, maleimido-PEG2-Val-Cit-pAB. PBS and serum controls were included to correct for any serum effects on assay performance.
# [3] = tested on: SJSA-1 cells; assay: Serum stability assay, cytotoxicity readout on SJSA-1
# Procedure: as §5, §6
# [4] = tested on: NCI-H2110 cells; conditions: read-out: IC50 on NCI-H2110; Example 1
# Procedure: as §1, §3, §4
# [5] = tested on: OVCAR3 cells; assay: Crystal Violet cytotoxicity assay (Examples 1 and 2), OVCAR3; conditions: read-out: Cytotoxicity (IC50) OVCAR3; OVCAR3 cells; mean of replicate experiments, where performed
# Procedure: as §1, §3
# Typically, test reagents were serially-diluted 1:4 in 2 mL deep-well dilution plates, starting at 1 μM (10 dilutions total). 100 μL of diluted samples were added to the cell plates (starting concentration of test samples at 100 nM). […] Plates were read at 570 nm. Data was analyzed using GraphPad Prism 6.
# [6] = tested on: IGROV1 cells; assay: Crystal Violet cytotoxicity assay (Examples 1 and 2), IGROV1
# Procedure: as §1, §2, §3
# Typically, test reagents were serially-diluted 1:4 in 2 mL deep-well dilution plates, starting at 1 μM (10 dilutions total). […] Plates were read at 570 nm. Data was analyzed using GraphPad Prism 6.
# [7] = read-out: Cell-based cytotoxicity assay, EC50, Human Serum, 0 hr-PBS
# [8] = read-out: Cell-based cytotoxicity assay, EC50, Human Serum, 0 hr-Serum
# [9] = read-out: Cell-based cytotoxicity assay, EC50, Human Serum, 4 hr at 37° C.
# [10] = read-out: Cell-based cytotoxicity assay, EC50, Human Serum, 24 hr at 37° C.
# [11] = read-out: Cell-based cytotoxicity assay, EC50, Mouse Serum, 0 hr-Serum
# [12] = read-out: Cell-based cytotoxicity assay, EC50, Mouse Serum, 4 hr at 37° C.
# [13] = read-out: Cell-based cytotoxicity assay, EC50, Mouse Serum, 24 hr at 37° C.
# [14] = read-out: Cell-based cytotoxicity assay, EC50, Mouse Serum, 48 hr at 37° C.
# [15] = read-out: Cell-based cytotoxicity assay, EC50, PBS, 0 hr-PBS
# [16] = read-out: Cell-based cytotoxicity assay, EC50, PBS, 0 hr-Serum
# [17] = read-out: Cell-based cytotoxicity assay, EC50, PBS, 4 hr at 37° C.
# [18] = read-out: Cell-based cytotoxicity assay, EC50, PBS, 24 hr at 37° C.
# [19] = read-out: Cell-based cytotoxicity assay, EC50, PBS, 48 hr at 37° C.
substance,measurement,setting,value
MORAb-003-PEG-pAB-duostatin 3 [M-0285],"killing of FR-negative SJSA-1 cells (off-target), in words",[1]; Example 1 screening,little cytotoxicity
same,IC50,"[1]; read-out: Cytotoxicity (IC50) SJSA-1, SJSA-1 cells, mean of replicate experiments, where performed",> 100 nM
same,EC50,[2]; [7],0.089 nM
same,EC50,[2]; [8],0.078 nM
same,EC50,[2]; [9],0.075 nM
same,EC50,[2]; [10],0.074 nM
same,EC50,[2]; [11],0.049 nM
same,EC50,[2]; [12],0.049 nM
same,EC50,[2]; [13],0.044 nM
same,EC50,[2]; [14],0.051 nM
same,EC50,[2]; [15],0.074 nM
same,EC50,[2]; [16],0.063 nM
same,EC50,[2]; [17],0.065 nM
same,EC50,[2]; [18],0.059 nM
same,EC50,[2]; [19],0.043 nM
same,EC50,[3]; [7],> 10 nM
same,EC50,[3]; [8],> 10 nM
same,EC50,[3]; [9],> 10 nM
same,EC50,[3]; [10],> 10 nM
same,EC50,"[3]; read-out: Cell-based cytotoxicity assay, EC50, Human Serum, 48 hr at 37° C.",> 10 nM
same,EC50,"[3]; read-out: Cell-based cytotoxicity assay, EC50, Mouse Serum, 0 hr-PBS",> 10 nM
same,EC50,[3]; [11],> 10 nM
same,EC50,[3]; [12],> 10 nM
same,EC50,[3]; [13],> 10 nM
same,EC50,[3]; [14],> 10 nM
same,EC50,[3]; [15],> 10 nM
same,EC50,[3]; [16],> 10 nM
same,EC50,[3]; [17],> 10 nM
same,EC50,[3]; [18],> 10 nM
same,EC50,[3]; [19],> 10 nM
same,IC50,[4],14 nM
same,IC50,[5],8.8 nM
same,"cytotoxicity and specificity on IGROV1 cell line, in words","[6]; Example 1 screening, IGROV1 versus SJSA-1",specific cytotoxicity
same,IC50,"[6]; read-out: Cytotoxicity (IC50) IGROV1, IGROV1 cells, mean of replicate experiments, where performed",0.3 nM

# From US20230398228A1, “ERIBULIN-BASED ANTIBODY-DRUG CONJUGATES AND METHODS OF USE” (EISAI R&D MANAGEMENT CO., LTD., priority 2016, published 2023)
